Holding throughout (experiment): liposome recruitment assay (liposome flotation, gel band quantification)
In test [1] the target is Sec23–Sec24 complex (WT), P15303;P40482. The following applies: GMP-PNP, 400 nm unilamellar liposomes, read off a plot.
The target in the next test is Sar1 (UniProt P20606). The following applies: GMP-PNP; 400 nm unilamellar liposomes; parent: est. 0.98; read off a plot.
The target in test [2] is Sec13–Sec31 complex (WT), Q04491;P38968. The following applies: GMP-PNP; 400 nm unilamellar liposomes; parent: est. 1.1; read off a plot.

Chain of Sar1 (P20606 whole entry): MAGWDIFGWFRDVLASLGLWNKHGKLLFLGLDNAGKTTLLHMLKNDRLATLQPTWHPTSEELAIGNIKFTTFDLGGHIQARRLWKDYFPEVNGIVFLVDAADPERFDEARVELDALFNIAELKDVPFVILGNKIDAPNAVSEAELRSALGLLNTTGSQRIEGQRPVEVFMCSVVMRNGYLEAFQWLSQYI
Chain of Sec23–Sec24 complex (WT) (P15303 whole entry, stated change not applied, the tested form may be a part): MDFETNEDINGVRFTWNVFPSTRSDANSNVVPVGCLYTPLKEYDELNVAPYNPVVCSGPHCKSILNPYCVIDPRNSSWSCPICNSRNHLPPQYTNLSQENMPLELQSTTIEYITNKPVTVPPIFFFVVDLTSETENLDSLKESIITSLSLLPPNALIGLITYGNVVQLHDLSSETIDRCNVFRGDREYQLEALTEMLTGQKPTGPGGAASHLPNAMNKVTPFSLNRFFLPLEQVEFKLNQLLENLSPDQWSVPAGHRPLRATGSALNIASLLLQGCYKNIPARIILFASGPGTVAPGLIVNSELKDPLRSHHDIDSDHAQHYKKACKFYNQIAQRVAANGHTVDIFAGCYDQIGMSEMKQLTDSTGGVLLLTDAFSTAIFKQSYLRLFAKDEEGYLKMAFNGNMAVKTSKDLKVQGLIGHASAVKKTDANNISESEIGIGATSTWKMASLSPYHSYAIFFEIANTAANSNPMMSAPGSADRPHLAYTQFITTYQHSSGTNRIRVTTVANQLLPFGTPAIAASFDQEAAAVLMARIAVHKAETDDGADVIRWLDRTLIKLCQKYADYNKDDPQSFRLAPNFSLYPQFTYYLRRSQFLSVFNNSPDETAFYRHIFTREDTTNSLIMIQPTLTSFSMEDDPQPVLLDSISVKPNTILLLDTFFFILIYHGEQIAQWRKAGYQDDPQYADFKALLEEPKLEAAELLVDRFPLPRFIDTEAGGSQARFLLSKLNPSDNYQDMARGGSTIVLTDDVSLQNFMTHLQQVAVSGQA
Chain of Sec23–Sec24 complex (WT) (P40482 whole entry, stated change not applied, the tested form may be a part): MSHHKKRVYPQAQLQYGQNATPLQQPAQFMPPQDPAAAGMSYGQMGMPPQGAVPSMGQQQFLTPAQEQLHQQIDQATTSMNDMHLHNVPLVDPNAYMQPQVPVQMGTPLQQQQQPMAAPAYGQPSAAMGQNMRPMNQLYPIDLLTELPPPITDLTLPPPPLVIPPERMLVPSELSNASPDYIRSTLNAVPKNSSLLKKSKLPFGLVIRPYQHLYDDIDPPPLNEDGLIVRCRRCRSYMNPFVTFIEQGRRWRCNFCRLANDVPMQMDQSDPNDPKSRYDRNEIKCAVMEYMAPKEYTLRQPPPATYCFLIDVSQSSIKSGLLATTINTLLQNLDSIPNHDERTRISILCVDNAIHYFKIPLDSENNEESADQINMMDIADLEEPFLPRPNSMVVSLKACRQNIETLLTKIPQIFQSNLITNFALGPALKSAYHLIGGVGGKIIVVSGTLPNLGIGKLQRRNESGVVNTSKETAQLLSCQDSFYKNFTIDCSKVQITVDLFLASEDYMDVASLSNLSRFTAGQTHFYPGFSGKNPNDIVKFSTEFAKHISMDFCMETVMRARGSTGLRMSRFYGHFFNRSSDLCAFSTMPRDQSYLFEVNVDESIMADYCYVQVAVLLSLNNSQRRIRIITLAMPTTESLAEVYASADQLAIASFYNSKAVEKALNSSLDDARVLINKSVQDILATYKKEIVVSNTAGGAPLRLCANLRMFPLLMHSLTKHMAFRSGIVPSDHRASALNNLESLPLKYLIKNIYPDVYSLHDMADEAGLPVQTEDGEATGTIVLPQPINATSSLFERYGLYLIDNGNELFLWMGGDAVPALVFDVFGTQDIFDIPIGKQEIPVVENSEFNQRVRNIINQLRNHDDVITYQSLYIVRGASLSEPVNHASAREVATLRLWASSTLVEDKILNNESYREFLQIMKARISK
Chain of Sec13–Sec31 complex (WT) (Q04491 whole entry, stated change not applied): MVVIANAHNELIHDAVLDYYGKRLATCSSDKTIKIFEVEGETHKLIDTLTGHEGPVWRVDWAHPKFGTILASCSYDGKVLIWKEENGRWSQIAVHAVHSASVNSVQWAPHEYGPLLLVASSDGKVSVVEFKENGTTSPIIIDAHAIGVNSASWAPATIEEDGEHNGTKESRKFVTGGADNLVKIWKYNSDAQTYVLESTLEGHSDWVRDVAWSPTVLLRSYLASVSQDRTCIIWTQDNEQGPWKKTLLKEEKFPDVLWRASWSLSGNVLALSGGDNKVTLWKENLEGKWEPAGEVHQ
Chain of Sec13–Sec31 complex (WT) (P38968 whole entry, stated change not applied): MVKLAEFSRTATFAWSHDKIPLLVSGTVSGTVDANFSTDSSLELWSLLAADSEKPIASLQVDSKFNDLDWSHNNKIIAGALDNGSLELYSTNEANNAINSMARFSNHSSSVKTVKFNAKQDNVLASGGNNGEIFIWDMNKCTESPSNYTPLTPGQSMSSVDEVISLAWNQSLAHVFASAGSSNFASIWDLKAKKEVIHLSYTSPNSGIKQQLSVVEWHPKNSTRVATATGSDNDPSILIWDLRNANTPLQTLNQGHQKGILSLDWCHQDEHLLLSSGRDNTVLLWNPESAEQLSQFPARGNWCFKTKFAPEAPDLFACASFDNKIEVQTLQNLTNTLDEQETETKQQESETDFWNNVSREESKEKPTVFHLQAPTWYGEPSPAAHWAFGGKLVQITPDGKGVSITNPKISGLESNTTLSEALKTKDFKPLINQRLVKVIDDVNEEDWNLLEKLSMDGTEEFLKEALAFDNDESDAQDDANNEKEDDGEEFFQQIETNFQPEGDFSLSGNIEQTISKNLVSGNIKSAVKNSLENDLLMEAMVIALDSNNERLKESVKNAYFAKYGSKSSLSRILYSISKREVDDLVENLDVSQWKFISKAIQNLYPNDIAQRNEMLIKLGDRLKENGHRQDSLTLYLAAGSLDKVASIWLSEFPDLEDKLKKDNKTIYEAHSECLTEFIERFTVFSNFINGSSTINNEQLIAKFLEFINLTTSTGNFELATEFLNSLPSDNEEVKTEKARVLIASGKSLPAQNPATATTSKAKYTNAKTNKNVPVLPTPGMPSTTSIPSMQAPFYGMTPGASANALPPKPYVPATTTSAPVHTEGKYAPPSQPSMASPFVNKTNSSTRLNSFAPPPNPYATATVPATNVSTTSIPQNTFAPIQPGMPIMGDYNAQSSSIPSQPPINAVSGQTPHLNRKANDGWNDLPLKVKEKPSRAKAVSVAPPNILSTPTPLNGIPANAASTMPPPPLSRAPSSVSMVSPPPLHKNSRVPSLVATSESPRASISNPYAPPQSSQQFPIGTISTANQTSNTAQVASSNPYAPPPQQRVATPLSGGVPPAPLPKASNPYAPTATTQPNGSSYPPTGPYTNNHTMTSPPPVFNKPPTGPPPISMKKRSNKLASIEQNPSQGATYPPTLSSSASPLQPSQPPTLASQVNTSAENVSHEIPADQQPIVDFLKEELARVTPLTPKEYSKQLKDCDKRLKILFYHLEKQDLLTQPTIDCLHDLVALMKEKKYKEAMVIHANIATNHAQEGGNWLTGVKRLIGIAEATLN
Chain of Sec13–Nhis-Sec31 complex (Q04491 whole entry, stated change not applied): as the sequence (Q04491 whole entry, stated change not applied) above
Chain of Sec13–Nhis-Sec31 complex (P38968 whole entry, stated change not applied): as the sequence (P38968 whole entry, stated change not applied) above

Turning to “Sec13–Nhis-Sec31 complex (from UniProt Q04491;P38968) ΔPPP (glycine/serine substitution of all six PPP motifs plus an additional PPAP motif; residues not printed)”, the other: Ratio Sec31:Sec23 in test [1] (parent: est. 0.91) came to 0.91. In the case of “Sec13–Sec31 complex (WT) (from UniProt Q04491;P38968) ΔPPP (glycine/serine substitution of all six PPP motifs plus an additional PPAP motif; residues not printed)”, the other: Ratio Sec31:Sec23 in test [1] (parent: est. 1.1) amounted to 1.2. “Sec23–Sec24 complex (WT) (from UniProt P15303;P40482) Δcharge (charge reversal of a negatively charged surface adjacent to the gelsolin domain of Sec23; residues not printed)”: the other: Protein ratio Sec23:Sar1 with Sar1 stood at 1.1. Moreover, the other: Protein ratio Sec31:Sec23 in test [2] is 0.43.
